The values that follow come from a protein production outcome set (Wang et al. 2014).

This data set is described as follows: label from the status in PepcDB records.
Regarding “MKEDWKSTIQKRIVERNLNQSKKYESIMKSYNSLVEEKNNLLAIIASLTSENMYLLNNRKLNHSFESTMMTETNISRNEDIFLSNETKKGHNNNNNQNDYNNDNSLNYSRTNIITMKSPDSLSQNTITKKEFLEVIKEKGKNEELILLLKNSVNEKEKMLHILNKENNNLNNVICKREEELYEKKKDIFKLEELLNKKETQIKLYENNNKSLKTKIQLHDRKNQKYFRQYNILRFTYFKLLKQVGEMKVYNNNINQNYFSLRKEMLQKKEENEKLLNYLIHCKTSYKKELKKLYQEITNKQKKYILFKNNQFYVNLYLRKF”, the protein production result was “failed”.
The same measure for “MPPLCRRQSGVPSGRRARHSGGMRLLVLGGTEFVGRSVVEAALGRGWEVTVLHRGRHAPPPGVRALHGDRTAPDGLTALTGAEDTWDAVVDTWSAAPRAVRDAARLLRQRAGRYVYVSSCSVYAWAPPAGYAEDAPLVEGASADAGQRDYARDKRGAELAVLDAFGADRSVLVRAGLILGPYENVGRLPWWLNRLARGGPVLAPGPRDLPLQYIDVRDLADWVLGAVERELSGPYNLVSPPGHTTMGGLLEACATVTGGTAELRWTSPETVLAAGIEPWVQLPVWTPPGSDLHDALHTADVSRALATGLVCRPARDTAAGTWTWLRDLGGTAPQRPDRPPVGLDPETEAKVLAADGPGGGVSDTTP”: “failed”; for “MSSAQVNGISKRLIVESPNVKLEDGVLESRFTYRKNHFEHRADGLHVTPKEHDYSFKTVLKPRKTGLLLVGLGGNNGSTAVGSIFANQYAMTWRTKEGHSQANYFGSVTQTATVHLGYDSATQNQIFVPFKDIVPILSPNDLIISGWDISDSNLYEAMGRAKVFEPELQEKLRPFMEPIVPLPSIYYPDFIASNQGDRANNVIPGDNKLEHLEHIRADIRKFKQEHELECVIVLWTANTERYTDVRQGLNATADEIMESIRVNEDEVSPSNIFAVASILEGAHYINGSPQNTLVPGLIELAERHKVFVGGDDFKSGQTKFKSAFVDFLVSSGMKPESIVSYNHLGNNDGKNLSEARQFRSKEISKSSVVDDMVKSNQILFPDAKNPDYCVVIKYVPYVADSKRAMDEYICSIFMGGKQTFVVHNTCEDSLLASPLIYDLAILTELASRVSYKVDDEYKPFHSVLSILSLLLKAPVVPPGTPISNAFMRQFSTLTKLVTALAGFPSDTDMQIEFFTQLPAAKSKSQ”: “not failed”.
As for “MDRRVTRRGVLAAAGIALAGCTDNGDDQPVRTPLPDEEREPLSNTWRSLGRDDGNTGAVAGIAGPYIEVAAEWQFDVGGAVIGGPVFDENTLYAGTADGEVYALDTHVGAERWSFSADGPVSTTPVVDDGLVAVGSSDGHIYGIDADDGTELWRFDTAVRVDSSPAIDDRYVYAGSVSNAAYAIDRTNGELHWRFDADGSVLASPAVGDETVYVASTDHNVYAIDPDSGEADWQFTTGGEISVAPTLVGDRLYVGSRDSSVYAIDTGSGEGRWSFGLEAAVASSPAVLGDRLFVGAADHNLYALGIGDDSPEGLWRSPTPGAAVGNPAVTDDHVFFGGRDGAVRALRTDGGDRSWEHDVDGGIQGGPALTDRWLYVGTDAGTVYAFRAG”, the protein production result is listed as “failed”.
Consider “RKKPVSQSLEFPTRYSPYRPYRCVHQGCFAAFTIQQNLILHYQAVHKSDLPAFSAEVEEE”, for which the protein production result was “not failed”.
Take “MNYSKLKSIPIYFSLLAISVSNVGCVQQDVEANLTSKTLSENLDSKALRHKNKEQDIESLLAQLTLEEKISLVHANTKFANAAVERLGIHSMEMSDGPHGVRRQISRDSWKPAGWDDDQATYLPPLTAVAASWDPQMATLHGNVLGSEARHRNKDVILGPGVNLARLPLYGRNFEYLGEDPFLAAKLVVPEIIAIQANDVAATVKHFALNTQELNRHGVDATPDERTLREVYLPAFEAAVKEGNTYAMMGSYNNVYGTNANQNKHLIMDILKGEWGYQGLLMTDWDVDINTYDAAMNGLDLEMGTRAKSYDDYFLAKPLLKMIQSGKVPVAVLDDKVRRILRVQLSIGMMDKQRFSGQRNTQEHRDFSRQIATQGVVLLKNESVASANHTNTVLPLDKNKVKNILVLGPNADKKHGSGGGSSQVKSLWEITPLQGLKDKLGDNVEIQFMRARSQSGVQPIAEDFVKTNNRGTGTPAWRLIEYKTKDRNKKAAHYGWLPESSYNSPLGDVIQHINLKADIMPLASGEHVLKLGGKGNVNLVINGKEVINTTLSGDKTYQHKLTLKQGKKYVFTLGYDGADNVVLGWNAPGSPFSTKDEYLAAAKNADAVIYYAGLSHADDRESKDRSNMVLPNNQDDIISDLIAVNSTTVVFVIGGSAVEMPWAEQANAIVWGWYGGMEAGHSYADILFGDVNPSGKMPITLPKKLTDTAPIVLNDYNEKTSTYPEGVFIGYRWFEQQNIEPLFPFGHGLSYTHFSFGDISLNKDVISAGETITASVKITNTGKVAGAEVVQLYLHDEESSVPRPVKELKGFEKVFLQPGESQTVMLTLTQRDLSFWDVNTKNWLAEQGQFSVHIGSSVNDIKTSTSFSYQ”: the protein production result was “failed”.
In the case of “MIQSQINRNIRLDLADAILLSKAKKDLSFAEIADGTGLAEAFVTAALLGQQALPADAARLVGAKLDLDEDSILLLQMIPLRGCIDDRIPTDPTMYRFYEMLQVYGTTLKALVHEKFGDGIISAINFKLDVKKVADPEGGERAVITLDGKYLPTKPF”, the protein production result was “not failed”.
The same measure for “MSSPAILLFDIDGVIRDVAGSYRRALQVTVEHYSGWQPMAADIDALKAEGCWNNDWDASLELLRRHENDVPSRSELIEVFSGFYFGGDPEGDPAEWQGFIGDEPLLVTRAFFDELTRHDIRWGFVSGAEPPSARYVLQQRLDLKDPPLIAMGDAPDKPDPTGLIRLAEQMAAGEVPHWIAYIGDTVADVQTVLNARKRRPELPWRSLAVAPPHVTDVSTYHRQLQDAGADRIVGATRELLPMLLDELA”: “failed”.
As to “MAQHHGHLGAVYDAAGPQEVAALYDRWAETYESEMARAGYRHPAIGVALLARHLPRGARPLLDAGAGTGLLGEWLEIVGYPEVEALDISAGMLEVARAKGIYARCHNLPLGAALPFRDGAFAGIISTGVFTTGHVGAEALPELLRICRPGGVIVLTVKESLWQGGFAVSLEAAVASGLEHHHHHH”, the protein production result was “failed”.
For “MRRILGPVLAAHYLAAFTALGMPLFLPQVLAELAPSAAVGWSGVLYVLPTLCTALTASTWGRWADRNGRKRSLLRAQLGLALGFAIAGFAPSLTWLVIGLIVQGTCGGSLAAANAYLASQPQAGPLARALDWTQYSARLAMVSAPALLGLALALGPAQSLYRALALLPLIAFALTWRLPADQPAAREPAAGTPATSLKHAASSPASPRTVAATSWPALLLAQFLFCFAMVVTFPYFIPYALARGAGHDALAGLLYSLPHLVYLVVLPWWRRGDGEAWLVPGLALFAAACVWQALLHDALALAAARLLFGFGMLFGLRGLNRSLAHIASGHSAGRLFGRFDACGKWAGVFAGAAAGALAQASGPATPFLAAALAAAAAALTVLVRFPSRRTADVAAHDA”, the protein production result is given as “failed”.
Turning to “PRPDKCPCEVYHLMKNCWETEASFRPTFENLIPILKTVHEKYQGQAPSVFSVC”, the protein production result is recorded as “failed”.
With “MMNYNTPKVSIVVPSLNSISYIRECIDSILNQTLKDIEILCIDANSTDGTLEVLKNYEKKDKRLRVIISDKKSYGYQMNLGIKEAKGEYLGIVESDDYIKTNMYERLYEIAKKNDCEVVKGDFYIFAYGKTEYVNVLRNSCEDIYNYKVNWNKDIRIFLGSDGINPIGIYRLDLLRTNQIKLNETPGASYQDNGLWFQIFALAKSIYFINEAFYMLRRDNPNSSVKSKEKVYCACEEYDFIRDFLKKHPDLEKTLAPICALHRFGNYMFTLERIDERYKLDFLKRFSQDFRKILKDKELDENLFGNINMQRINKIIENPVIYYYFSRGARARLQNQLVYRLGKVVVEAKSFNKIIKLPFLMLKICLEHNFEHKVYRSIVQFRPDLKLLPLECYLDYHEALVIKEHLSYKFGKLILLSFKGWYKGKIFILPFMLKKRYKEYKNKMILEHHHHHH” the entry was “failed”; with “MLVQAIMTSPAITVTASASVAEAARLMLDNRISGLPVVGANGALVGIVSEGDFLRRSELSTERKRSWLLEWLTSSGRIAAEYVRTHGRRVEEVMTAPVSAIAPTASLSDAVRLMERQEIKRLPVVEGGRLVGIVARSDLLRALSQALPATSTSAGDAQIQAAIEAALAKQSWSRNGFIHSRVTDGIAELTGTVFDERERLAAKVAVENVAGVTSVKDQLVWVDPYYGIALPPPDAETSQA”, “failed”.
The same measure for “MNFKLNNTLSNEINTLIIGIPEHLNQLERISFNHIDITESLERLKHQHIIGSKVGKIYTTAFDVQDQTYRLITVGLGNLKTRSYQDMLKIWGHLFQYIKSEHIEDTYLLMDSFISKYDQLSDVLMACGIQSERATYEFDHYKSSKKAPFKTNLNLISESLIELDFIHEGISIGQSINLARDFSNMPPNVLTPQTFAEDIVNHFKNTKVKVDVKDYDTLVSEGFGLLQAVGKGSKHKPRLVTITYNGKDKDEAPIALVGKGITYDSGGYSIKTKNGMATMKFDMCGAANVVGIIEAASRLQLPVNIVGVLACAENMINEASMKPDDVFTALSGETVEVMNTDAEGRLVLADAVFYANQYQPSVIMDFATLTGAAIVALGDDKAAAFESNSKVILNDILQISSEVDEMVFELPITATERASIKHSDIADLVNHTNGQGKALFAASFVTHFSGQTPHIHFDIAGPATTNKASYNGPKGPTGFMIPTIVQWLKQQ”: “not failed”; for “MNVTTTRFGEIAVEEAKIITLPDGMLGFSEKRFVLLTPQNITPFCWLQSVENPELAFVVVDTKECASDYAVKLTAEESEKLCVNDGDEVVLLAVVTMASDPFNITVNLQGPIALNPKRMLAKQIVLEGSRYTTKHPFFDQAARSKAPGKRNASGEVTAA”: “not failed”; for “MNLVQAFLLSFTAFFAIMNPFANLPMFVSLTADNNRKEVDAIARLAFIVATVIVALFALLGNYIFSIFGINLSALRIMGGIILGLIGYHMIQGNVSPIQHDPKQSVKDSINSNNTDVAISPLAMPVLAGPGTIATTMNLSSSTNPFIVISAFVVLSVITYFIFIYGEQIMAKLGNNIMNVITKLMGLILATIGVRMLIMGVQVAFHW”: “failed”.
The same measure for “MDVVDSLLVNGSNITPPCELGLENETLFCLDQPRPSKEWQPAVQILLYSLIFLLSVLGNTLVITVLIRNKRMRTVTNIFLLSLAVSDLMLCLFCMPFNLIPNLLKDFIFGSAVCKTTTYFMGTSVSVSTFNLVAISLERYGAICKPLQSRVWQTKSHALKVIAATWCLSFTIMTPYPIYSNLVPFTKNNNQTANMCRFLLPNDVMQQSWHTFLLLILFLIPGIVMMVAYGLISLELYQGIKFEASQKKSAKERKPSTTSSGKYEDSDGCYLQKTRPPRKLELRQLSTGSSSRANRIRSNSSAANLMAKKRVIRMLIVIVVLFFLCWMPIFSANAWRAYDTASAERRLSGTPISFILLLSYTSSCVNPIIYCFMNKRFRLGFMATFPCCPNPGPPGARGEVGEEEEGGTTGASLSRFSYSHMSASVPPQ”: “failed”.
As for “MTNWKPLVSVITPSYNARDYIEDTVHSVLDQSHPHWEMIIVDDCSTDGTRDILQQYEKIDERIHVVYLEENSGAAVARNKALERAQGRYVAFLDSDDKWKKDKLEKQLEFMMERSCAFSFTGYSLMAQDGTPLDKFIHAPESLTYDDALKNTIIGCLTVMIDREQTGQIQMPNIRTRQDLATWLSLLKKGFTAYGMNECLAEYRLVNNSISSNKWKAAKKTWFVYREIERLHFMKATWCFVQYAKNAVKKRLLEHHHHHH”, the protein production entry is on record as “not failed”.
The same measure for “MNRSANTNAVLLLLLCAFFWGASFPVGKHALGEVHALTLVIWRFAIAAACLFAFIKWKRIPIPELKAKQWLWVVGVSIVGVGGLNLGLFTGLAQTNASNGALIMALSPLTTSLIGSLLQRKLLTRGAVFSLVVCLSGVLLVLTNGELKRLLSFEFNHGDQIIFLGMLCWSLYTYLTQGISRWMPMIPYTFIGMLAGLGVISVVAAFSAEAHPVQESLAISQIVLADLLFIGVFGTVGGYLLWISGVKQLGAANASLFFNFVPIFAALTAVTFGQNVASLQLLGMAIVISGLLLPRLTHWRQQRFARMG”: “failed”.
